From PMC4899250 (Journal of neurochemistry, 2016)

Target: the molecule itself
Test: native MS

B1: tau^106-144 (peptide)
peptide: Ac-AGIGDTPSLEDEAAGHVTQARMVSKSKDGTGSDDKKAKG-NH2
- stoichiometry N: 2
